# Experimental data reported in the nanobody polyreactivity screen of Harvey et al. (2022).
# Assay: yeast display, Sf9 membrane polyspecificity reagent, FACS + sequencing; frameworks hold sequencing errors
# In short: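 Polyreactivity labels are assigned by the sorting gate from which each nanobody was recovered. The gates were low and high (top ~1%), set on anti-HA fluorescence for expression and streptavidin fluorescence for reagent binding. Before sorting, galactose-induced (36–48 hours) yeast display cells were stained for 1 hour at 4 °C with 10% biotinylated, detergent-solubilized Sf9 membrane reagent.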
row,Sequence,polyreactivity (PSR sort gate)
1,QVQLVESGGGLVQAGGSLRLSCAASGSIFHGYAMGWYRHAPGKERELVAAITWSGGRTYYADSVKGRFTISRDNAKNNVYLQMNSLKPEDTAVYYCAAVALTRRYDYWGQGTQVTVSS,high polyreactivity
2,QVQLVESGGGLVQAGGSLRLSCAASGITFYRYAMGWYRQAPGKERELVAAITSSGGSTYYADSVKGRFTISRDNAKNTVYLQMNSLKPQDTAVYYCAARDLGRYPPKLYYWGQGTQVTVSS,high polyreactivity
3,QVQLVESGGGLVQAGGSLRLSCAASGSIIVRYAMGWYRQAPGKERELVATITFRDTSTYYADSVKGRFTISRDNAKNTVYLQMNRLIPEDTAVYYCAAVRADLWDIARYDYWGQGTQVTVSS,low polyreactivity
4,QVQLVESGGGLVQAGGSLRLSCAASGITFGDNDMGWYRQAPGKDRELVASISSGGSTTYADSVKGRFTISRDNAKNTVYLQMNSLKPEDTADYYCNADYGSSVEYNYWGQGTQVTVSS,low polyreactivity
5,QVQLVESGGGLVQAGGSLRLSCAASGRTFRYYAMGWYRQAPGKERELVAAISWNGANTYYADSVKGRFTISRDNAKNTVYLQMNSLKPEDTAVYYCAATYYRWKGYDYWGQGTQVTVSS,high polyreactivity
6,QVQLVESGGGLVQAGGSLRLSCAASGSTFGGNGMGWYRQAPGKKGSWVAAISWSGGSTYYADSVKGRFTISRDNAKNTVYLQMNSLKPEDTAVYYCAARTVYRGRAYDYWGQGTQVTVSS,high polyreactivity
7,QVQLVESGGGLVQAGGSLRLSCAASGSTFVYNAMGWYRQAPGKERELVAAISRRGTSTYYADSVKGRFTISRDNAKNTVYLQMNSLKPEDTAVYYCAASQLSRSGQYRRDYWGQGTQVTVSS,high polyreactivity
8,QHQLGESGGGLVQAGGRLRLSCAASGRIFHVSAMGWYREAPGKERELVAAISSGDRTYYADSGKGRFIISRDNAKNSVYLQLNSLKPEDTAVYYCWRYPAAESNYWGQGTQVTVSS,low polyreactivity
9,QVQLVESGGGLVQAGGSLRLSCAASGRIFDDYAMGWYRQAPGKERELVAAIRSGGNTNYADSVKGRFTISRDNAKNTVYLQMNSLKPEDTADYYCAADTWFRAGYFVVYYDYWGQGTQVTVSS,low polyreactivity
10,QVQLVESGGGLVQAGGSLRLSCAASGSIFWYNAMGWYRQAPGKERELVARISSSGDSTYYADSVKGRFTISRDNAKNTVYLQINSLKPEDTAVYYCNVDYWSISESSWGYYTSYDYWGQGTQVTVSS,high polyreactivity
11,QVQLVESGGGLVQAGGSLRLSCAASGSTFSNYAMGWYRQAPGKERELVASISNGGSTNYADSVKGRFTISRDNAMNTVYLQMNSLKPEDTSVYNCNAESKAKYDYWGQGTQVTVSS,low polyreactivity
12,QVQLVESGGGLVQAGGSLRLSCAASGLIFATNAMGWYRQAPGKERELVATITRSAGRTYYADSVKGRFTISRDNAKNPVYLQMNSLKPEDTAVYYCAASYWDTEPGYREYDYWGQGTQVTVSS,low polyreactivity
13,QVQLEESGGGLVQAGGRLRLSCAASGIIFGYYAIGWYRQAPGKERELVAAISSGGTTSYADSVKGRFTISRDNAKNTVYLQMNSLKPEDTSVYYCSARDWYDGFYYWGQGTQVTVSS,low polyreactivity
14,QGQLVESGGGLVQAGGSLRLSSAASGSTHALYTMGWYRQARGKARQLVAAISKNGGRTYYADSVKGRFTISRDNAKNTVYVQMNSLKPEDTAVYYCAAASGSYRGYDYWGQGTQVTVSS,high polyreactivity
15,QVQIVESGGGLVQAGGSLRLSCAASGSIFGTYAMGWYRQAPGKERELVAAITRRGGSTFYADSVKGRFTISRDNAKNTVYLQMNSLKPEDTAVYDCAAPPYYWGQGTQVTVSS,high polyreactivity
16,QVQLVESGGGLVQAGGSLRLSCAASGRTFPAYAMGWYRQAPGKERELVAAISSSGSRTYYADSVKGRFTISRDNAKNTVYLQMNSLKPEDTAVYYCAARGGRRQKVNRDDYWGQGTQVTVSS,high polyreactivity
17,QVQLVESGGGLVQAGGSLRLSCAATGRTFRLYAMGWYRQAPGKERELVAAITRGGRTNYADSVKGRFTISRDNAKNTVYLQMNSLKPEDTAVYYCAARYRLPIPGTQYEYWGQGTQVTVSS,low polyreactivity
18,QVQLVESGGGLVQAGGSLSLSCAASGSTFDYYAMGWYRQAPGKEWELVADITYSGGSTYYADSVKGRFTISRDNAKNTVYLQMNSLKPEDTAVYYCNAYYTVYTRYDYWGQGTQVTVSS,high polyreactivity
19,QVQLVESGGGLVQAGGSLRLSCAASGTIFYDNAMGWYRQAPAKERELVASIRWSGDSTYYADSVKGRFTISRDNAKNTVYLQMISLKPEDTAVYYCAADPVEPYFTAIAYDYWGQGTQVTVSS,low polyreactivity
20,QVQLVESGGGLVQAGGSLRLSCAASGSTFIYYAMGWYRQAPGKERELVAAITSAGRTNYADSVKGRFTISRDNAKNTVYLQMNSLKPEDTAVYYCAAAYRPRKHHYDYWGQGTQVTVSS,high polyreactivity
21,QVQLVESGGGLVQAGGSLRLSCAASGLIFGGYAMGWYRQAPGKERELVAAIYWDDGDTYYADSVKGRFTISRDNAKNTVYLQMNSLKTEDTAVYYCNAAGALIFGEGYYVEYDYDYWGQGTQVTVSS,low polyreactivity

row,Sequence,polyreactivity (PSR sort gate)
1,QVQIVESGGCLVQAGGSLRLSCAASGGTIGGNAMGWYRQAPGKQREMVAAITDIGGSTYYSDSVKGRFTISRDNAKNTVSLQKNCLKPEDTSVYFCATDEASNQDATYLYYYWGQGTQVTVSS,low polyreactivity
2,QVQLVESGGGLVQAGGSLRLSCAASGIIFRRYAMGWYRQAPVKERELVAAITRGGITYYADSVKGRFTISRDNAKNTVYLQMNSLKPEDTAVYYCAALAYPQEYDYWGQGTQVTVSS,low polyreactivity
3,QVQLVESGGGLVQAGGSLRLSCAASGFIFDDYAMGWYRQAPGKERELVAAISASGGRTFYADSVKGRFTISRDNAKNTVYLQMNSLKPEDTAVYYCATIVDTYVFRYYYWGQGTQVTVSS,high polyreactivity
4,QVQLVESGGGLVQAGGSLRLSCAASGIIFTYYAMGWYRQAPGKERELVAAISDSGGGTYYADSVKGRFTISRDNAKNTVYLQMNSLKPEDTAVYYCAASGAWWDDYWGQGTQVTVSS,high polyreactivity
5,QVQLVESGGGLVQAGGSLRLSCAASGLIFTTNAMGWYRQAPGKEREFVAAISPSGGSTYYADSVKGRFTISRDNAKNTVYLQMNSLKPEDTAVYYCAAAGWSARGYNYWGQGTQVTVSS,high polyreactivity
6,QDQLGDSGGGLVQAGGSLSLSCAASGFIFYRYAMGWYRQAPGKERELVAAISGRGGSTYYADSVKGRFTISRDNAKNTVYLQMNSLKPEDTAVYYCATKPRSDSYGNYDYWGQGTQVTVSS,high polyreactivity
7,QVQLVESGGGLVQAGGSLRLSCAASGSIFDVNAMGWYRQAPGKERELVAAISDSGGSTFYADSVKGRFTISRDNAKNTVYLQMNTLKPEDTGVYYCNTEDFFNVPEMDSWGQGTQVTVSS,low polyreactivity
8,QVQLVESWGGLVQAGGSLRLSCAASGFTLYYYAMGWYRPAPGKERELVARISLRGGRTYYADSVKGRFTISRDNAKTTVYLQMNSLKPEESAVYYCAAVGRYPITWESGESDYWGQGTQVTVSS,high polyreactivity
9,QDQLVESGGGLVQAGGSLRLSCAASGIIFYRYAMGWYRQAPGKERELVAAITWSGVSTSYADSVKGRFTISRDNAKNTVYLQMNSLKPEDTAVYYCNKDPGTLYGDMDSWGQGTQVTVSS,low polyreactivity
10,QVLLVESGPGLVQAGGSLRLSCAASGSTLYYYAMGWYRQAPGKERELVAAITWSGDSTYYADSVKGRFTISRYNAKNTVYLQMNSLIPEDTAVYYCASEVESYDQYYTYDYWGQGTQVTVSS,high polyreactivity
11,QVQLVESGGGLVQAGGSLRLSCAASGSTFRHYAMGWYRQAPGKERELVAVISWGGTSTYYADSVKGRFTISRDNAKNTVYLQMNSLKPEDTAVYYCAVKYAYPYAGVSAIRYYYWGQGTQVTVSS,low polyreactivity
12,QVKLVESGGGLVQAGGSLRLSCAASGSTFPRYAMGWYRQAPGKEREFVAVIWSGGSTYYADSVKGRFTISRDNAKNTVYFQMNSLIPEDTAVYYCAAEYHTLSKYSGYATHDYWGQGTQVTVSS,low polyreactivity
13,QVQLVESGGGLVQAGGSLRLSCAASGSTLHEYAMGWSIQAPGKERELVAAISRGGGNTNYADSVKGRFTISRDNAKNTVYLQMNSLKPEDTAVYYCNARHGKIIFYLERYDYWGQGTQVTVSS,low polyreactivity
14,QVQLVESGGGLVQAGGSLRLSCAASGFTYIDYAMGWYRQAPGKERELVAAITSRGGTTYYADSVKGRFTISRDNAKNTVYLLMNSLKPEDTAVYYCNAGSSFWVSRIGYDYWGQGTQVTVSS,high polyreactivity
15,QVQLVESGRGLVQAGGSLRLSCAASGYIFDRYAMGWSRQAPGKERELVAAISGRGGSTYYADSVKGRFTISRDNAKNTVYLQMNSLNPEDTAVYYCARDVYVRNGQRARYDSWGQGTQVTVSS,high polyreactivity
16,QVQLVESGGGLVQAGGSLRLSCAASGSTFGAYVMGWSRQAPGKERELVAGITYSGGTTYYAYSVKGRFTISRDNSKNTVYLQMNILKPEDTAVYYCNVSQHYSRRLKKWQMDYWGQGTQVTVSS,high polyreactivity
17,QVQLVESGGGLVQAGGSLRLSCAASGSTFFVNAMGWYRQPPGKERELVAAISTSGGRTYYADSVKGRFTISRDNAKNTVYLQMNSLKPEDTAVYYCAAYLRSPKGYYYWGQGTQVTVSS,high polyreactivity
18,QVQHVESGGGLVQAGGSLRLSCAASGIIFPRNAMGRYRQAPGKEREFVAAITLSGGRTYYADSVKGRFTISRDNAKNSVYLQMNSLKPEDTAVYYCAAYGFGPYKGVDYWGQGTQVTVSS,high polyreactivity
19,QVQLVESGGCLVQAGGSLRLSCAASRFTFTYYAMGWYRHAPGKESELVAAITRRGGRTYYAYSVKGRFTISRDNAKNTVYLQMNSLKPEDTAVYYCNADEYGGSTGRKGRYNYWGQGTQVTVSS,low polyreactivity
20,QDQLVESGGGLVQAGGSLRLSCAASGSTFVRSVMGWYRQAPGKERELVAAISRRGGSTYYADSVKGRFTISRDNAKNTVYLQMNSQKPEDTAVYYCARTVGYRTLLESDSWGQGTQVTVAS,high polyreactivity
